Measured values: article PMC4743056

Columns and labels:
Assay in all cases: fluorescence polarization
hPRDM9A ZnF8-11 = hPRDM9A ZnF8-11 (Homo sapiens, allele A, UniProt Q9NQV7 717-830)
hPRDM9A ZnF8-13 = hPRDM9A ZnF8-13 (Homo sapiens, allele A, UniProt Q9NQV7 717-894)
[1] = biological target: hPRDM9A ZnF8-12 (allele A) (Homo sapiens, allele A, UniProt Q9NQV7 717-858)
[2] = biological target: hPRDM9 ZnF8-12 N789H (allele L20) (Homo sapiens, allele L20, UniProt Q9NQV7 717-858, N790H)
hPRDM9 ZnF8-12 N789H (allele L20), sequence (Q9NQV7 717-858 N790H): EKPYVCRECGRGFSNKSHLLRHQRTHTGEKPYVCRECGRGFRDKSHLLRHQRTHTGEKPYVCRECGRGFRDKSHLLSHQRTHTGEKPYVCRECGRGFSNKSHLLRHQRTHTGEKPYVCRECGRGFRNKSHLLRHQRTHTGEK

hPRDM9A ZnF8-12 (allele A), sequence (Q9NQV7 717-858): as the sequence (Q9NQV7 717-858 N790H) above, with H74N counted along it
hPRDM9A ZnF8-11, sequence (Q9NQV7 717-830): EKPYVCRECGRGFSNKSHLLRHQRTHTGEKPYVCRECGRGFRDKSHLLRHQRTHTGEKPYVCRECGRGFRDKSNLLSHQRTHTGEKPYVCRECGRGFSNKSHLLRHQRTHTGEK
hPRDM9A ZnF8-13, sequence (Q9NQV7 717-894): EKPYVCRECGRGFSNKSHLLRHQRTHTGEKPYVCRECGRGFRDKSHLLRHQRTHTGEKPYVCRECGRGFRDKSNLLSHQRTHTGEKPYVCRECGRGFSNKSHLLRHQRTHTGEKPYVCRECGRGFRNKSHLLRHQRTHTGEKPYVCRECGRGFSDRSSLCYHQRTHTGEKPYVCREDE

B1: THE1B 24-bp (dsDNA)
DNA 1: GAGGCCTCCCTAGCCACGTGGAAC
DNA 2: GTTCCACGTGGCTAGGGAGGCCTC
binding signal (hPRDM9A ZnF8-11): ~12 fold lower affinity than ZnF8-12
binding signal (hPRDM9A ZnF8-13): ~1 fold (similar to ZnF8-12)

B2: THE1B with 5mC at position 17 bottom strand (dsDNA)
DNA 1: GAGGCCTCCCTAGCCACGTGGAAC
DNA 2: GTTCCACGTGGCTAGGGAGGCCTC
modifications: 5-methylcytosine at bottom strand base 7 (C of G:C bp 17)
binding signal [1]: ~1 fold (same as unmethylated)

B3: THE1B T:A to C:G (dsDNA)
DNA 1: GAGGCCTCCCCAGCCACGTGGAAC
DNA 2: GTTCCACGTGGCTGGGGAGGCCTC
binding result [2]: binds
